From PMC9482650, “Quantitative fragmentomics allow affinity mapping of interactomes” (Nature Communications, 2022) come the findings set out here.

What all share (assay): holdup assay
Common to all, as to parameters: key: below the threshold = too weak to quantify, mostly under pKd 3.1 to 4
Holding throughout (settings): plain residues with an end cap or a label only (N-terminal biotin on a linker: ado-ado)

Test [1] has as its target AHNAK1, Q09666.
For test [2], the target named is T1, DFNB31_3, Q9P202.
T1 sequence (Q9P202 811-907, limits assumed, looked up): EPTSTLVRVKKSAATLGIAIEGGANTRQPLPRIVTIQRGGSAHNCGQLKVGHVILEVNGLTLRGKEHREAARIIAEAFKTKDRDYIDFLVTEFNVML

For test [3], the target named is FRMPD2_2, Q68DX3.
In test [4] the target is FRMPD3, Q5JV73.
For test [5], the target named is GORASP2, Q9H8Y8.
Test [6] concerns the target GRID2IP_1, A4D2P6.
Test [7] addresses T2, GRIP1_4, Q9Y3R0.
T2 sequence (Q9Y3R0 467-571, limits assumed, looked up): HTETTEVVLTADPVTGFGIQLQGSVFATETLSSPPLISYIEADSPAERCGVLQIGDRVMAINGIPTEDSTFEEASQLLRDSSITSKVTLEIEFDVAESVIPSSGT

The target of test [8] is T3, GRIP1_7, Q9Y3R0.
T3 sequence (Q9Y3R0 999-1096, limits assumed, looked up): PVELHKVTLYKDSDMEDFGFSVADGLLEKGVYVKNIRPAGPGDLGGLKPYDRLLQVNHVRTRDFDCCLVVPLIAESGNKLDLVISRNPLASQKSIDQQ

Test [9] addresses Inadl_5, Q8NI35.
Test [10] deals with T4, LIN7A, O14910.
T4 sequence (O14910 103-200, limits assumed, looked up): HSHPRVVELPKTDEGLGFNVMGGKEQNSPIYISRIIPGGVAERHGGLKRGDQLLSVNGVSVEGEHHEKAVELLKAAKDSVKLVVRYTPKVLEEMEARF

Test [11] has as its target T5, LIN7C, Q9NUP9.
T5 sequence (Q9NUP9 88-185, limits assumed, looked up): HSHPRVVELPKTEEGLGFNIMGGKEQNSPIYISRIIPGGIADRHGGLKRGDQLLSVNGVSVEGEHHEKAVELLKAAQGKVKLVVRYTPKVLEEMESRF

Test [12] deals with LNX1_3, Q8TBB1.
For test [13], the target named is MAGI2_5, Q86UL8.
For test [14], the target named is MAST2, Q6P0Q8.
In test [15] the target is T6, MPDZ_5, O75970.
T6 sequence (O75970 695-796, limits assumed, looked up): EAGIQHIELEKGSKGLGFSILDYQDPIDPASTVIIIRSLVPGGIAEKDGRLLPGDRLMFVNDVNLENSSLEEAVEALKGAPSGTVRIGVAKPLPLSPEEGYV

The target of test [16] is T7, NHERF3_3, Q5T2W1.
T7 sequence (Q5T2W1 238-333, limits assumed, looked up): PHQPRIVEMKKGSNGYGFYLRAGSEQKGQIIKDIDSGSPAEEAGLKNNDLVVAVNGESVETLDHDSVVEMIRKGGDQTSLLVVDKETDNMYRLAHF

Test [17] concerns the target T8, PDZD2_2, O15018.
T8 sequence (O15018 329-429, limits assumed, looked up): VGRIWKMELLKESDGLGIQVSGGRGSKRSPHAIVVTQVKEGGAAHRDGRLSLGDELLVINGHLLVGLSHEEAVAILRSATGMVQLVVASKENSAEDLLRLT

Test [18] deals with PICK1, Q9NRD5.
The target of test [19] is T9, PTPN13_1, Q12923.
T9 sequence (Q12923 1088-1188, limits assumed, looked up): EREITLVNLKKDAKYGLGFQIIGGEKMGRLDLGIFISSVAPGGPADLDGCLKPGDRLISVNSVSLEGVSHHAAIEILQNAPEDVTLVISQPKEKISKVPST

In test [20] the target is T10, RAPGEF6, Q8TEU7.
T10 sequence (Q8TEU7 525-625, limits assumed, looked up): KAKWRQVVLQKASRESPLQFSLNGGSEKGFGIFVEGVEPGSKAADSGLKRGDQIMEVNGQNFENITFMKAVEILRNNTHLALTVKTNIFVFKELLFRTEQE

The target of test [21] is T11, SNTB1, Q13884.
T11 sequence (Q13884 107-205, limits assumed, looked up): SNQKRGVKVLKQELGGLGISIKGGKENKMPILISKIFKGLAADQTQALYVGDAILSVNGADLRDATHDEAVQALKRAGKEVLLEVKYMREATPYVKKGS

Test [22] deals with T12, SNTG1, Q9NSN8.
T12 sequence (Q9NSN8 52-150, limits assumed, looked up): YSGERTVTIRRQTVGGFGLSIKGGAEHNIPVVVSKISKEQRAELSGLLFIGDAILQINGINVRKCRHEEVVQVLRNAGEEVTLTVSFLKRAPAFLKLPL

The target in test [23] is T13, SYNJ2BP, P57105.
T13 sequence (P57105 8-110, limits assumed, looked up): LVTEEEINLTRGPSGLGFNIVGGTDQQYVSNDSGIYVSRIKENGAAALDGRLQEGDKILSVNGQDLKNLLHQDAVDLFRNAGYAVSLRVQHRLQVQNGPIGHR

Test [24] addresses TJP1_3, Q07157.

Sequence of TJP1_3, Q07157 (Q07157 416-512): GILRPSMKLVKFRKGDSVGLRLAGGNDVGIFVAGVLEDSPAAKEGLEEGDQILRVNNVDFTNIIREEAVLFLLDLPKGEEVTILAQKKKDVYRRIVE
Sequence of FRMPD2_2, Q68DX3 (Q68DX3 944-1038): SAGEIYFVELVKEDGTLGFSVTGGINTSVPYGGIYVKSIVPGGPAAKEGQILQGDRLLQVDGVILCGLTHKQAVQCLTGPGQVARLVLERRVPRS
Sequence of PICK1, Q9NRD5 (Q9NRD5 17-115): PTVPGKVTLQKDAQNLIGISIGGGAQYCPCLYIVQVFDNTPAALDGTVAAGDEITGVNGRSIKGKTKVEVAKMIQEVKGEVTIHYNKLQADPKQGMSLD
Sequence of Inadl_5, Q8NI35 (Q8NI35 673-780): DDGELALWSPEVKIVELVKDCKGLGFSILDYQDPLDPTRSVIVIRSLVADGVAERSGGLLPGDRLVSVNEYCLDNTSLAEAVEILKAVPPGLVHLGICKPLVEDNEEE
Sequence of FRMPD3, Q5JV73 (Q5JV73 12-100): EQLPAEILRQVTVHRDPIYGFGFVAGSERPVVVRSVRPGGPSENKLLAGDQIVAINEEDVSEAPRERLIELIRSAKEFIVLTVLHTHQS
Sequence of MAGI2_5, Q86UL8 (Q86UL8 915-1017): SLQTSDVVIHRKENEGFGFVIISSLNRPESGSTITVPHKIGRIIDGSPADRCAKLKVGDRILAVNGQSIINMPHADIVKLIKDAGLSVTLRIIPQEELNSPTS
Sequence of GRID2IP_1, A4D2P6 (A4D2P6 1-87): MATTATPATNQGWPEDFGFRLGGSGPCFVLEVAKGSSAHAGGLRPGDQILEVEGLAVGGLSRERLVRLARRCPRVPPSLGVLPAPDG
Sequence of MAST2, Q6P0Q8 (Q6P0Q8 1099-1202): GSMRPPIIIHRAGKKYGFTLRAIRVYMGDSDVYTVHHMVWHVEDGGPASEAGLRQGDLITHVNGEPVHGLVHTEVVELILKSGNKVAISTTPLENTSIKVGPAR
Sequence of LNX1_3, Q8TBB1 (Q8TBB1 500-596): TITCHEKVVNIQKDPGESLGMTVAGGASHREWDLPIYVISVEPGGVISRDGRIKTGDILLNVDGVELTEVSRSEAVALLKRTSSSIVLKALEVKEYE
Sequence of AHNAK1, Q09666 (Q09666 4-100): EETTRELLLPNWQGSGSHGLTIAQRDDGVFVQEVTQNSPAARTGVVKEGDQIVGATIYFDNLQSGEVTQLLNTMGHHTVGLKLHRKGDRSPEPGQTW

For HLRQQGSVEV [EPHB6, O15197], the pKd entry in test [1] was “below the threshold”; in test [2], “below the threshold”; in test [3], “below the threshold”; in test [4], “below the threshold”; in test [5], “below the threshold”; in test [6] it was 4.13. Also, the pKd result in test [7], in [8], in [9], in [10], in [11] and in test [12] was “below the threshold” in each case. The negative-log Kd (pKd) result in test [13] was “below the threshold”; in test [14], 4.01; in test [15], “below the threshold”; in test [16], “below the threshold”; in test [17], “below the threshold”; in test [18] it was “below the threshold”. Besides, the pKd entry in test [19], in [20], in test [21], in [22], in [23] and in test [24] was “below the threshold” each time.
In the case of TGLWKSETTV [ADGRA2, Q96PE1], the pKd result is “below the threshold” in test [1]; 3.88 in [2]; 3.51 in test [3]; “below the threshold” in [4]; 3.9 in [5]; “below the threshold” in test [6]. For the same molecule, the pKd entry was “below the threshold” in [7]; “below the threshold” in test [8]; “below the threshold” in test [9]; 3.93 in [10]; 4.29 in test [11]; “below the threshold” in test [12]. Further, the pKd was 4.12 in test [13]; 5.23 in [14]; “below the threshold” in test [15]; “below the threshold” in [16]; 3.81 in [17]; “below the threshold” in test [18]. Moreover, the negative logarithm of the Kd (pKd) result in [19] is “below the threshold”; in test [20] it was “below the threshold”; in test [21], 4.55; in test [22] it was 4.21; in test [23], 5.08; in [24] it was “below the threshold”.
Regarding FTLPAESSEI [PLEKHG7, Q6ZR37], the pKd result in test [1] is “below the threshold”; in [2], 3.63; in test [3] it was “below the threshold”; in test [4], “below the threshold”; in test [5], “below the threshold”; in [6], “below the threshold”. For the same molecule, the pKd result in test [7], in test [8], in [9], in [10], in test [11] and in test [12] was “below the threshold” each time. For the same molecule, the pKd entry was “below the threshold” in test [13]; 5.6 in [14]; “below the threshold” in [15]; “below the threshold” in test [16]; 5.12 in test [17]; 3.99 in [18]. For the same molecule, the pKd entry in test [19] is “below the threshold”; in test [20] it was “below the threshold”; in test [21], “below the threshold”; in [22] it was “below the threshold”; in test [23] it was 3.98; in test [24], “below the threshold”.
In the case of NLQEHSTTSV [RSBN1, Q5VWQ0], the pKd entry was “below the threshold” in test [1]; “below the threshold” in [2]; 3.97 in test [3]; “below the threshold” in test [4]; “below the threshold” in test [5]; “below the threshold” in [6]. For the same molecule, the pKd entry in test [7], in test [8], in [9], in test [10], in test [11] and in test [12] was “below the threshold” in each case. Also, the pKd in test [13] was 3.48; in test [14], 5.61; in [15] it was “below the threshold”; in test [16] it was “below the threshold”; in [17] it was 4.52; in test [18], “below the threshold”. The pKd entry in test [19] is “below the threshold”; in test [20], “below the threshold”; in [21] it was 3.99; in test [22] it was 3.65; in test [23], 4.42; in [24], “below the threshold”.
